Drawing on article PMC6477152 (2019), this text covers response for 11 variants.

The labels stand for the following.
B1: FIP200ΔN1115:Luciferase [human] / GST:SINTBADaa5-85 [human] (parent complex)
chain 1: ENYQVGLAELRTLMTIEKDQCISELISRHEEESNILKAELNKVTSLHNQAFEIEKNLKEQIIELQSKLDSELSALERQKDEKITQQEEKYEAIIQNLEKDRQKLVSSQEQDREQLIQKLNCEKDEAIQTALKEFKLEREVVEKELLEKVKHLENQIAKSPAIDSTRGDSSSLVAELQEKLQEEKAKFLEQLEEQEKRKNEEMQNVRTSLIAEQQTNFNTVLTREKMRKENIINDLSDKLKSTMQQQERDKDLIESLSEDRARLLEEKKKLEEEVSKLRSSSFVPSPYVATAPELYGACAPELPGESDRSAVETADEGRVDSAMETSMMSVQENIHMLSEEKQRIMLLERTLQLKEEENKRLNQRLMSQSMSSVSSRHSEKIAIRDFQVGDLVLIILDERHDNYVLFTVSPTLYFLHSESLPALDLKPGEGASGASRRPWVLGKVMEKEYCQAKKAQNRFKVPLGTKFYRVKAVSWNKKV
chain 2: FEDDISILTQEALGPSEVWLDSPGDPSLGGDMCSASHFALITAYGDIKERLGGLERENATLRRRLKVYEIKYPLISDFGEE

Variants of B1 are the subject of the first experiment. As to the kind of experiment: LUMIER assay; HEK293ET cell lysates; bacterially expressed GST bait; read off a plot.
As for chain 1 ENYQVGLAELRTLMTIEKDQCISELISRHEEESNILKAELNKVTSLHNQAFEIEKNLKEQIIELQSKLDSELSALERQKDEKITQQEEKYEAIIQNLEKDRQKLVSSQEQDREQLIQKLNCEKDEAIQTALKEFKLEREVVEKELLEKVKHLENQIAKSPAIDSTRGDSSSLVAELQEKLQEEKAKFLEQLEEQEKRKNEEMQNVRTSLIAEQQTNFNTVLTREKMRKENIINDLSDKLKSTMQQQERDKDLIESLSEDRARLLEEKKKLEEEVSKLRSSSFVPSPYVATAPELYGACAPELPGESDRSAVETADEGRVDSAMETSMMSVQENIHMLSEEKQRIMLLEATLQLKEEENKRLNQRLMSQSMSSVSSRHSEKIAIRDFQVGDLVLIILDERHDNYVLFTVSPTLYFLHSESLPALDLKPGEGASGASRRPWVLGKVMEKEYCQAKKAQNRFKVPLGTKFYRVKAVSWNKKV [chain 1 R349A], the response is ~170 fold binding.

As for chain 1 ENYQVGLAELRTLMTIEKDQCISELISRHEEESNILKAELNKVTSLHNQAFEIEKNLKEQIIELQSKLDSELSALERQKDEKITQQEEKYEAIIQNLEKDRQKLVSSQEQDREQLIQKLNCEKDEAIQTALKEFKLEREVVEKELLEKVKHLENQIAKSPAIDSTRGDSSSLVAELQEKLQEEKAKFLEQLEEQEKRKNEEMQNVRTSLIAEQQTNFNTVLTREKMRKENIINDLSDKLKSTMQQQERDKDLIESLSEDRARLLEEKKKLEEEVSKLRSSSFVPSPYVATAPELYGACAPELPGESDRSAVETADEGRVDSAMETSMMSVQENIHMLSEEKQRIMLLERALQLKEEENKRLNQRLMSQSMSSVSSRHSEKIAIRDFQVGDLVLIILDERHDNYVLFTVSPTLYFLHSESLPALDLKPGEGASGASRRPWVLGKVMEKEYCQAKKAQNRFKVPLGTKFYRVKAVSWNKKV [chain 1 T350A], the response is ~180 fold binding.

In the case of chain 1 ENYQVGLAELRTLMTIEKDQCISELISRHEEESNILKAELNKVTSLHNQAFEIEKNLKEQIIELQSKLDSELSALERQKDEKITQQEEKYEAIIQNLEKDRQKLVSSQEQDREQLIQKLNCEKDEAIQTALKEFKLEREVVEKELLEKVKHLENQIAKSPAIDSTRGDSSSLVAELQEKLQEEKAKFLEQLEEQEKRKNEEMQNVRTSLIAEQQTNFNTVLTREKMRKENIINDLSDKLKSTMQQQERDKDLIESLSEDRARLLEEKKKLEEEVSKLRSSSFVPSPYVATAPELYGACAPELPGESDRSAVETADEGRVDSAMETSMMSVQENIHMLSEEKQRIMLLARTLQLKEEENKRLNQRLMSQSMSSVSSRHSEKIAIRDFQVGDLVLIILDERHDNYVLFTVSPTLYFLHSESLPALDLKPGEGASGASRRPWVLGKVMEKEYCQAKKAQNRFKVPLGTKFYRVKAVSWNKKV [chain 1 E348A], the response was ~200 fold binding.

For the variant chain 1 ENYQVGLAELRTLMTIEKDQCISELISRHEEESNILKAELNKVTSLHNQAFEIEKNLKEQIIELQSKLDSELSALERQKDEKITQQEEKYEAIIQNLEKDRQKLVSSQEQDREQLIQKLNCEKDEAIQTALKEFKLEREVVEKELLEKVKHLENQIAKSPAIDSTRGDSSSLVAELQEKLQEEKAKFLEQLEEQEKRKNEEMQNVRTSLIAEQQTNFNTVLTREKMRKENIINDLSDKLKSTMQQQERDKDLIESLSEDRARLLEEKKKLEEEVSKLRSSSFVPSPYVATAPELYGACAPELPGESDRSAVETADEGRVDSAMETSMMSVQENIHMLSEEKQRIMLLERTLQLKEEENKRLNQRLMSQSMSSVSSRHSEKIAIRDFQVGDLVLIILDERHDNYVLFTVSPTLYFLHSESLPALDLKPGEGASGASRRPWVLGKVMEKEYCQSKKAQNRFKVPLGTKFYRVKAVSWNKKV [chain 1 A452S], the response was ~59 fold binding.

As for chain 1 ENYQVGLAELRTLMTIEKDQCISELISRHEEESNILKAELNKVTSLHNQAFEIEKNLKEQIIELQSKLDSELSALERQKDEKITQQEEKYEAIIQNLEKDRQKLVSSQEQDREQLIQKLNCEKDEAIQTALKEFKLEREVVEKELLEKVKHLENQIAKSPAIDSTRGDSSSLVAELQEKLQEEKAKFLEQLEEQEKRKNEEMQNVRTSLIAEQQTNFNTVLTREKMRKENIINDLSDKLKSTMQQQERDKDLIESLSEDRARLLEEKKKLEEEVSKLRSSSFVPSPYVATAPELYGACAPELPGESDRSAVETADEGRVDSAMETSMMSVQENIHMLSEEKQRIMLLERTAQLKEEENKRLNQRLMSQSMSSVSSRHSEKIAIRDFQVGDLVLIILDERHDNYVLFTVSPTLYFLHSESLPALDLKPGEGASGASRRPWVLGKVMEKEYCQAKKAQNRFKVPLGTKFYRVKAVSWNKKV [chain 1 L351A], the response was ~110 fold binding.

With chain 1 ENYQVGLAELRTLMTIEKDQCISELISRHEEESNILKAELNKVTSLHNQAFEIEKNLKEQIIELQSKLDSELSALERQKDEKITQQEEKYEAIIQNLEKDRQKLVSSQEQDREQLIQKLNCEKDEAIQTALKEFKLEREVVEKELLEKVKHLENQIAKSPAIDSTRGDSSSLVAELQEKLQEEKAKFLEQLEEQEKRKNEEMQNVRTSLIAEQQTNFNTVLTREKMRKENIINDLSDKLKSTMQQQERDKDLIESLSEDRARLLEEKKKLEEEVSKLRSSSFVPSPYVATAPELYGACAPELPGESDRSAVETADEGRVDSAMETSMMSVQENIHMLSEEKQRIMLLERTLQAKEEENKRLNQRLMSQSMSSVSSRHSEKIAIRDFQVGDLVLIILDERHDNYVLFTVSPTLYFLHSESLPALDLKPGEGASGASRRPWVLGKVMEKEYCQAKKAQNRFKVPLGTKFYRVKAVSWNKKV [chain 1 L353A], the response is ~170 fold binding.

With chain 1 ENYQVGLAELRTLMTIEKDQCISELISRHEEESNILKAELNKVTSLHNQAFEIEKNLKEQIIELQSKLDSELSALERQKDEKITQQEEKYEAIIQNLEKDRQKLVSSQEQDREQLIQKLNCEKDEAIQTALKEFKLEREVVEKELLEKVKHLENQIAKSPAIDSTRGDSSSLVAELQEKLQEEKAKFLEQLEEQEKRKNEEMQNVRTSLIAEQQTNFNTVLTREKMRKENIINDLSDKLKSTMQQQERDKDLIESLSEDRARLLEEKKKLEEEVSKLRSSSFVPSPYVATAPELYGACAPELPGESDRSAVETADEGRVDSAMETSMMSVQENIHMLSEEKQRIMLAERTLQLKEEENKRLNQRLMSQSMSSVSSRHSEKIAIRDFQVGDLVLIILDERHDNYVLFTVSPTLYFLHSESLPALDLKPGEGASGASRRPWVLGKVMEKEYCQAKKAQNRFKVPLGTKFYRVKAVSWNKKV [chain 1 L347A], the response is ~99 fold binding.

For the variant chain 1 ENYQVGLAELRTLMTIEKDQCISELISRHEEESNILKAELNKVTSLHNQAFEIEKNLKEQIIELQSKLDSELSALERQKDEKITQQEEKYEAIIQNLEKDRQKLVSSQEQDREQLIQKLNCEKDEAIQTALKEFKLEREVVEKELLEKVKHLENQIAKSPAIDSTRGDSSSLVAELQEKLQEEKAKFLEQLEEQEKRKNEEMQNVRTSLIAEQQTNFNTVLTREKMRKENIINDLSDKLKSTMQQQERDKDLIESLSEDRARLLEEKKKLEEEVSKLRSSSFVPSPYVATAPELYGACAPELPGESDRSAVETADEGRVDSAMETSMMSVQENIHMLSEEKQRIMLLERTLALKEEENKRLNQRLMSQSMSSVSSRHSEKIAIRDFQVGDLVLIILDERHDNYVLFTVSPTLYFLHSESLPALDLKPGEGASGASRRPWVLGKVMEKEYCQAKKAQNRFKVPLGTKFYRVKAVSWNKKV [chain 1 Q352A], the response was ~210 fold binding.

In another experiment the parent is B1. As to the kind of experiment: LUMIER assay; HEK293ET cell lysates; read off a plot.
For chain 1 ENYQVGLAELRTLMTIEKDQCISELISRHEEESNILKAELNKVTSLHNQAFEIEKNLKEQIIELQSKLDSELSALERQKDEKITQQEEKYEAIIQNLEKDRQKLVSSQEQDREQLIQKLNCEKDEAIQTALKEFKLEREVVEKELLEKVKHLENQIAKSPAIDSTRGDSSSLVAELQEKLQEEKAKFLEQLEEQEKRKNEEMQNVRTSLIAEQQTNFNTVLTREKMRKENIINDLSDKLKSTMQQQERDKDLIESLSEDRARLLEEKKKLEEEVSKLRSSSFVPSPYVATAPELYGACAPELPGESDRSAVETADEGRVDSAMETSMMSVQENIHMLSEEKQRIMLLERTLQLKEEENKRLNQRLMSQSMSSVSSRHSEKIAIRDFQVGDLVLIILDERHDNYVLFTVSPTLYFLHSESLPALDLKPGEGASGASRRPWVLGKVMEKEYCQSKKAQNRFKVPLGTKFYRVKAVSWNKKV [chain 1 A452S], the response was ~280 fold binding.

chain 1 ENYQVGLAELRTLMTIEKDQCISELISRHEEESNILKAELNKVTSLHNQAFEIEKNLKEQIIELQSKLDSELSALERQKDEKITQQEEKYEAIIQNLEKDRQKLVSSQEQDREQLIQKLNCEKDEAIQTALKEFKLEREVVEKELLEKVKHLENQIAKSPAIDSTRGDSSSLVAELQEKLQEEKAKFLEQLEEQEKRKNEEMQNVRTSLIAEQQTNFNTVLTREKMRKENIINDLSDKLKSTMQQQERDKDLIESLSEDRARLLEEKKKLEEEVSKLRSSSFVPSPYVATAPELYGACAPELPGESDRSAVETADEGRVDSAMETSMMSVQENIHMLSEEKQRIMLLERTLQLKEEENKRLNQRLMSQSMSSVSSRHSEKIAIRDFQVGDLVLIILDERHDNYVLFTVSPTLYFLHSESLPALDLKPGEGASGASRRPWVLGKVMEKEYCQAKKAQNRFKSPLGTKFYRVKAVSWNKKV [chain 1 V461S]: the response is ~6.4 fold binding.

Turning to chain 1 ENYQVGLAELRTLMTIEKDQCISELISRHEEESNILKAELNKVTSLHNQAFEIEKNLKEQIIELQSKLDSELSALERQKDEKITQQEEKYEAIIQNLEKDRQKLVSSQEQDREQLIQKLNCEKDEAIQTALKEFKLEREVVEKELLEKVKHLENQIAKSPAIDSTRGDSSSLVAELQEKLQEEKAKFLEQLEEQEKRKNEEMQNVRTSLIAEQQTNFNTVLTREKMRKENIINDLSDKLKSTMQQQERDKDLIESLSEDRARLLEEKKKLEEEVSKLRSSSFVPSPYVATAPELYGACAPELPGESDRSAVETADEGRVDSAMETSMMSVQENIHMLSEEKQRIMLLERTLQLKEEENKRLNQRLMSQSMSSVSSRHSEKIAIRDFQVGDLVLIILDERHDNYVLFTVSPTLYFLHSESLPALDLKPGEGASGASRRPWVLGKVMEKEYCQAKKAQSRFKVPLGTKFYRVKAVSWNKKV [chain 1 N457S], the response is ~7.8 fold binding.

As to chain 1 ENYQVGLAELRTLMTIEKDQCISELISRHEEESNILKAELNKVTSLHNQAFEIEKNLKEQIIELQSKLDSELSALERQKDEKITQQEEKYEAIIQNLEKDRQKLVSSQEQDREQLIQKLNCEKDEAIQTALKEFKLEREVVEKELLEKVKHLENQIAKSPAIDSTRGDSSSLVAELQEKLQEEKAKFLEQLEEQEKRKNEEMQNVRTSLIAEQQTNFNTVLTREKMRKENIINDLSDKLKSTMQQQERDKDLIESLSEDRARLLEEKKKLEEEVSKLRSSSFVPSPYVATAPELYGACAPELPGESDRSAVETADEGRVDSAMETSMMSVQENIHMLSEEKQRIMLLERTLQLKEEENKRLNQRLMSQSMSSVSSRHSEKIAIRDFQVGDLVLIILDERHDNYVLFTVSPTLYFLHSESLPALDLKPGEGASGASRRPWVLGKVMEKEYCQAKKAQNRSKVPLGTKFYRVKAVSWNKKV [chain 1 F459S], the response was ~6.2 fold binding.
